# Laboratory results reported in patent US20220119492A1 (MEDIKINE, published 2022).
# Bridge positions count the residues as written; N and C are the ends. Ends that are not written are not given here.
# T1: human IL-2Rβ (CD122 protein, Fc Tag) (27-239) (human, UniProt P14784 27-239)
# T1 construct: range 27-239; Bought protein; also called hu-IL-2Rβ subunit; IL-2Rβ subunit; not shown: Fc tag of the bought protein
# T1 sequence (looked up): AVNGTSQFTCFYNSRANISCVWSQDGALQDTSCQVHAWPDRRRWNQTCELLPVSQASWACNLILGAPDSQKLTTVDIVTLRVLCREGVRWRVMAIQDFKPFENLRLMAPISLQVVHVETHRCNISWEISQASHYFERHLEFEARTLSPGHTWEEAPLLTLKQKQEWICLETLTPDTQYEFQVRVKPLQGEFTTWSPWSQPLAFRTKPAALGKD
# Target: T1, human IL-2Rβ (CD122 protein, Fc Tag) …
# Test: phage ELISA competition
# Summary of the method: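 IC50 comes from absorbance measured across a dilution series of ligand in a competitive binding ELISA against human IL-2Rβ-Fc, with a phage tracer as the competitor. The phage tracer (50 μL) was added with no wash step for 45 min at 4° C. Detection of bound phage used TMB for 1 to 15 min at 25° C, then stop solution and a reading at 450 nm.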
row,Binder,IC50 [µM]
1,RLASDWWDCYIAKVGELCDF [SEQ ID NO 2855],< 100
2,QFVKDCFLAQVGDLCELFLW [SEQ ID NO 2869],< 100
3,RYLYDCFLALVGDLCVKFHQ [SEQ ID NO 2862],< 100
4,RSLVDCFLVKVGDLCDFFNW [SEQ ID NO 2861],< 100
5,KWVHDCFLAKVGDVCDLFVV [SEQ ID NO 2860],< 100
6,QWFHNCFLARVGDTCDLFLW [SEQ ID NO 2857],< 100
7,HGILDCYFAKVGELCELFDW [SEQ ID NO 2868],< 100
8,VSRYDCYIAKVGELCDFFEF [SEQ ID NO 2845],< 100
9,SNWHDCLFAQVGELCDLPGS (disulfide 6-15 (inferred)) [SEQ ID NO 2851],< 100
10,SMDQDCYFAQVGELCVLFNQ [SEQ ID NO 2849],< 100
11,VTVQDCYFARVGDLCDLFSP [SEQ ID NO 2846],< 100
12,RYVHDCFIAQVGDLCDLFLH [SEQ ID NO 2859],< 100
13,RLLRDCFLAKVGDLCELFVW [SEQ ID NO 2856],< 100
14,GGYYDCLIAEVGELCDIYGR [SEQ ID NO 2850],< 100
15,YDCYIAQVGELCDI [SEQ ID NO 2852],< 100
16,WEWYDCLMAQVGELCDFEGN [SEQ ID NO 2847],< 100
17,ELLVDCFKVKVGELCDLFFG (disulfide 6-15 (inferred)) [SEQ ID NO 2858],< 100
18,SWLSDLQDCYIAQVGDLCQI [SEQ ID NO 2853],< 100
19,AHFYDCFWAKAGELCDLWPS (disulfide 6-15 (inferred)) [SEQ ID NO 2863],< 100
20,THVHDCFLAKVGDLCDLFIV [SEQ ID NO 2866],< 100
21,WGKLVRDCFLAKVGDLCDLFLW [SEQ ID NO 2865],< 100
22,HWVRDCFLAKVGELCDLFLW [SEQ ID NO 2867],< 100
23,WAFYDCRNAQVGDFCDLWEF [SEQ ID NO 2848],< 100

# Further lines, results first:
row,IC50 [µM],Binder
1,< 100,DGSWYTCWFTQLGEWCEQDDAK [SEQ ID NO 2882]
2,< 100,YSFKDCYFAKVGELCELFLW [SEQ ID NO 2875]
3,< 100,EIFKDCLFANVGELCEIFPS [SEQ ID NO 2873]
4,< 100,WPCWAALGELCDLD [SEQ ID NO 2888]
5,< 100,WYTCMMDWLGVHCELE [SEQ ID NO 2878]
6,< 100,NWFHDCFLARVGDLCDLFLD (disulfide 6-15 (inferred)) [SEQ ID NO 2874]
7,< 100,WTCWLTQLGYDCNLDVVDQSLG [SEQ ID NO 2881]
8,< 100,NWLPDCLFANVGELCDIFPW [SEQ ID NO 2872]
9,< 100,EFFHDCYVARVGELCDLFGW [SEQ ID NO 2876]
10,< 100,YWCSVWQLGSVCEMNNEETQ [SEQ ID NO 2880]
11,< 100,HWFLDCFLANVGDLCDFFGN [SEQ ID NO 2871]
12,< 100,WPCWLGELCDLD [SEQ ID NO 2890]
13,< 100,SYLCWLDHWGVICEED [SEQ ID NO 2877]
14,< 100,WPCWALGELCDLD [SEQ ID NO 2889]
15,< 100,EFWGWQCWQEPLGWSCDLEWMD [SEQ ID NO 2883]
16,< 100,LVDCFKVKVGELCDLF (disulfide 4-13 (inferred)) [SEQ ID NO 2886]
17,< 100,DWLPDCYFANVGDLCSLFGS [SEQ ID NO 2870]
18,< 100,WYPCWGELCDLD [SEQ ID NO 2891]
19,< 100,QMVWWDCWSTQEGPVCELNWTA [SEQ ID NO 2879]
20,< 100,VHDCFIAQVGDLCDLF [SEQ ID NO 2887]

# Target: T1, human IL-2Rβ (CD122 protein, Fc Tag) …
# Test: competition ELISA, peptide tracer
# Protocol: (§1) Binding of Fc fusions to IL-2Rβ and IL-2Rγc were measured using a competition binding ELISA with biotinylated peptide/NeutrAvidin-HRP tracer. ELISA plate was prepared as described in Example 27.
# (§2) The plate was washed 4 times with PT (1×PBS, 0.05% Tween® 20) buffer. Fifty (50) μL of IL-2R ligands serially diluted in PBT was added to appropriate wells then incubated at 4° C. for 1 hr.
# (§3) At the appropriate time, the precomplexed bn-peptide/NA-HRP tracer was diluted to 2-fold its predetermined binding EC80 (typically 30 to 10 nM) without washing. fifty (50) μL of bn-peptide/NA-HRP tracer was added to each well and incubated at 4° C. for 45 mins.
IC50 [µM],binding result,Binder
< 100,,GGELLVDCFKVKVGELCDLFF [SEQ ID NO 3107]
< 100,,ELLVDCFKVKVGELCDLFFGGG [SEQ ID NO 3124]
< 100,,GGELLVDCFKVKVGELCDLFFG [SEQ ID NO 3114]
,binds,GGWYPCWMAQLGELCDLDGGGGSGGVVCQDWEGVELCWQGG [IL-2Rβγc ligand having SEQ ID NO: 1263]
< 100,,GGRYVHDCFIAQVGDLCDLFLH [SEQ ID NO 3137]
< 100,,GGELLVDCFKVKVGELCDLF [SEQ ID NO 3122]

# Target: T2, cynomolgus monkey IL-2Rβ subunit (cynomolgus monkey)
# T2 construct: Bought protein; also called cyno-IL-2Rβ subunit
# T2 sequence (Q38J85 whole entry): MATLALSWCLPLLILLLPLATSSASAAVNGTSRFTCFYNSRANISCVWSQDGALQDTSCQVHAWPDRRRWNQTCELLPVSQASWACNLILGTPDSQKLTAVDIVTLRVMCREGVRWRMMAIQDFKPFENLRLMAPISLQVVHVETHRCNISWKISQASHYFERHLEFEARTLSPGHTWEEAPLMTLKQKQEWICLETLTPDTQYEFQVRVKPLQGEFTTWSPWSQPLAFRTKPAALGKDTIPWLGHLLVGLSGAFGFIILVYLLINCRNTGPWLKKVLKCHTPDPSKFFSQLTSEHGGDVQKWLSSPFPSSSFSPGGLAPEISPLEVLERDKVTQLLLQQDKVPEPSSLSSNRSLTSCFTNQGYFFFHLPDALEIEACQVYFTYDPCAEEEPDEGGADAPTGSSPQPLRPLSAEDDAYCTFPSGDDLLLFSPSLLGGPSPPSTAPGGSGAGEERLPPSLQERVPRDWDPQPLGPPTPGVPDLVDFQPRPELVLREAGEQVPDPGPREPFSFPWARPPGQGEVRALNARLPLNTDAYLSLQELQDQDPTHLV
# Test: competition ELISA, peptide tracer
# Protocol: as §1, §2, §3
row,IC50 [µM],Binder
1,< 100,GGELLVDCFKVKVGELCDLFF [SEQ ID NO 3107]
2,< 100,ELLVDCFKVKVGELCDLFFGGG [SEQ ID NO 3124]
3,< 100,GGELLVDCFKVKVGELCDLFFG [SEQ ID NO 3114]
4,< 100,GGRYVHDCFIAQVGDLCDLFLH [SEQ ID NO 3137]
5,< 100,GGELLVDCFKVKVGELCDLF [SEQ ID NO 3122]
